Experimental data: patent publication US20220259307A1 (Memorial Sloan Kettering, published 2022)

Legend:
[1] = target: full length CD33 on cells (human, UniProt P20138 18-364); assay: cell-based or functional assay
[2] = target: T1, CD33 (immobilized on CM5 sensor chip) (UniProt P20138 18-259, limits assumed); assay: SPR (Biacore T-200), CD33 immobilized on CM5 chip
T1 construct: also called CD33 antigen
T1 sequence (P20138 18-259 limits assumed): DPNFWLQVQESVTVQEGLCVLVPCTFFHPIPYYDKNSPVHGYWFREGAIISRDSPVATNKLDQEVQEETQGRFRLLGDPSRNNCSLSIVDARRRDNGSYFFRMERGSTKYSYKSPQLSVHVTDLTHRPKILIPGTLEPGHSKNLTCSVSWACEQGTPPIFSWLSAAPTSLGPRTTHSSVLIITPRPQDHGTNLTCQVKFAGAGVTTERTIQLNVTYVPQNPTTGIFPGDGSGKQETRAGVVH

full length CD33 on cells, sequence (P20138 18-364): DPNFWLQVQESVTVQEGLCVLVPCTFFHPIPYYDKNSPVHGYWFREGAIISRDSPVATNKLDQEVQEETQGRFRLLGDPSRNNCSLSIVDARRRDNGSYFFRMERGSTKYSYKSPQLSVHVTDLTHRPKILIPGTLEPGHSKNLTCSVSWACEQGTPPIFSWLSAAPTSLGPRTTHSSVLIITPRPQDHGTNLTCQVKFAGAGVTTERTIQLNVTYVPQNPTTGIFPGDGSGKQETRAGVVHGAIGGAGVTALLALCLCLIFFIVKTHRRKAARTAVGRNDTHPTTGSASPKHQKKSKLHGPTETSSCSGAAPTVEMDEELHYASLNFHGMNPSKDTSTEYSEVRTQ

Binder	EC50 of T cell cytotoxicity, 4-hour 51Cr release assay, C1498-CD33 cells [1] [pM]	EC50 of T cell cytotoxicity, 4-hour 51Cr release assay, THP1 cells [1] [pM]	Kd [2] [pM]	koff [2] [s⁻¹]	kon [2] [M⁻¹ s⁻¹]
chimeric HIM34×CD3 bispecific antibody (chHIM34 BsAb) (bispecific antibody, IgG-scFv format (tetravalent); also called chHIM34×CD3 BsAb; chimeric CD33-BsAb) light: DIVMTQSPSSLSASLGGKVTITCKASQDINKYIAWYQHKPGKGPRLLIHYTSTLQPGIPSRFSGSGSGRDYSFSISNLEPEDIATYYCLQYDNLLTFGAGTKLELKRTVAAPSVFIFPPSDEQLKSGTASVVCLLNNFYPREAKVQWKVDNALQSGNSQESVTEQDSKDSTYSLSSTLTLSKADYEKHKVYACEVTHQGLSSPVTKSFNRGECTSGGGGSGGGGSGGGGSQVQLVQSGGGVVQPGRSLRLSCKASGYTFTRYTMHWVRQAPGKCLEWIGYINPSRGYTNYNQKFKDRFTISRDNSKNTAFLQMDSLRPEDTGVYFCARYYDDHYSLDYWGQGTPVTVSSGGGGSGGGGSGGGGSGGGGSGGGGSGGGGSDIQMTQSPSSLSASVGDRVTITCSASSSVSYMNWYQQTPGKAPKRWIYDTSKLASGVPSRFSGSGSGTDYTFTISSLQPEDIATYYCQQWSSNPFTFGCGTKLQITR heavy: not shown	0.001	0.2	128	0.000117	914000
humanized HIM34 BsAb L4H4 (bispecific antibody, human IgG1, V domains shown, Tested as a humanized HIM34×CD3 BsAb in the IgG-scFv format (human IgG1 N297A/K322A, humanized OKT3 scFv on the light chain)) VH: QVQLVQSGAEVKKPGASVKVSCKASGYSFTDYNMYWVRQAPGQGLEWIGYIDPYKGGTNYAQKFQGRATLTVDKSSSTAYMELSRLRSDDTAVYYCAREMITAYYFDYWGQGSSVTVSS VL: DIQMTQSPSSLSASVGDRVTITCKASQDINKYIAWYQHKPGKAPKLLIYYASNLQPGVPSRFSGSGSGRDFTFTISSLQPEDIATYYCLQYDNLLTFGAGTKLELK	–	–	1650	0.00743	4.5e+06
humanized HIM34 BsAb L4H1 (bispecific antibody, human IgG1, V domains shown, Tested as a humanized HIM34×CD3 BsAb in the IgG-scFv format (human IgG1 N297A/K322A, humanized OKT3 scFv on the light chain)) VH: QVQLQQSGAEVVKPGASVKVSCKASGYSFTDYNMYWVRQAPGQGLEWIGYIDPYKGGTNYAQKFQGRVTMTVDKSSSTAYMELSRLRSDDTAVYYCAREMITAYYFDYWGQGSSVTVSS VL: DIQMTQSPSSLSASVGDRVTITCKASQDINKYIAWYQHKPGKAPKLLIYYASNLQPGVPSRFSGSGSGRDFTFTISSLQPEDIATYYCLQYDNLLTFGAGTKLELK	–	–	1210	0.00597	4.95e+06
humanized HIM34 BsAb L4H7 (bispecific antibody, human IgG1, V domains shown, Tested as a humanized HIM34×CD3 BsAb in the IgG-scFv format (human IgG1 N297A/K322A, humanized OKT3 scFv on the light chain)) VH: QVQLQQSGAEVKKPGASVKVSCKASGYSFTDYNMYWVRQAPGQGLEWIGYIDPYKGGTIYNQKFKGRATLTRDTSISTAYMELSRLRSDDTAVYYCAREMITAYYFDYWGQGSSVTVSS VL: DIQMTQSPSSLSASVGDRVTITCKASQDINKYIAWYQHKPGKAPKLLIYYASNLQPGVPSRFSGSGSGRDFTFTISSLQPEDIATYYCLQYDNLLTFGAGTKLELK	–	–	198	0.00017	861000
humanized HIM34 BsAb L3H4 (bispecific antibody, human IgG1, V domains shown, Tested as a humanized HIM34×CD3 BsAb in the IgG-scFv format: human IgG1 with N297A/K322A, humanized OKT3 scFv on the light chain C-terminus via (G4S)3) VH: QVQLVQSGAEVKKPGASVKVSCKASGYSFTDYNMYWVRQAPGQGLEWIGYIDPYKGGTNYAQKFQGRATLTVDKSSSTAYMELSRLRSDDTAVYYCAREMITAYYFDYWGQGSSVTVSS VL: DIQMTQSPSSLSASVGDRVTITCKASQDINKYIAWYQHKPGKAPKLLIHYTSTLETGVPSRFSGSGSGTDFTFTISSLQPEDIATYYCLQYDNLLTFGAGTKLELK	–	–	955	0.00175	1.84e+06
